{
  "source": "paper PMC2897912",
  "about": "(Journal of immunology (Baltimore, Md. : 1950), 2010)",
  "biological_target": "T1, IL-17RC-FL (murine IL-17RC, full length, unspliced, C-terminal Myc tag) (mouse, UniProt Q8K4C2 22-698)",
  "T1 sequence (looked up)": "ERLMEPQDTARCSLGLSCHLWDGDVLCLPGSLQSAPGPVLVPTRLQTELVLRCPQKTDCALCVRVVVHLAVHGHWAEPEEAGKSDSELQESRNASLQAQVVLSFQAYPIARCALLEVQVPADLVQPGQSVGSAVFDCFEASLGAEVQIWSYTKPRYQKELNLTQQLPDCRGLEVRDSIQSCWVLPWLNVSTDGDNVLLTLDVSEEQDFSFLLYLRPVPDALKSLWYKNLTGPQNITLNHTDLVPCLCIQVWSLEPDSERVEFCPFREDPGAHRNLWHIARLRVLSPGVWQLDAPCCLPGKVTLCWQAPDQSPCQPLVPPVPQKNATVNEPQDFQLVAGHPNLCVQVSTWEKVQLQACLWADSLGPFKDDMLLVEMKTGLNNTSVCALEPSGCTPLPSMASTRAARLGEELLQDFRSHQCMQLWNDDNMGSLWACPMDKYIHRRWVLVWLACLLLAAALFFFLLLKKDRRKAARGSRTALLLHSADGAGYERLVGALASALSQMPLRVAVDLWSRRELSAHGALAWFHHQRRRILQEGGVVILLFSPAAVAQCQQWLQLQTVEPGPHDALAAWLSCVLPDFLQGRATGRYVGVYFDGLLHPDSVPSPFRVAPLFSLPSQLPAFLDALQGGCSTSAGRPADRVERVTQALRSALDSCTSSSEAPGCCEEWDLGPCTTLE",
  "assay": "co-IP",
  "data": [
    {"binder": "CFP-tagged murine Act1, larger phosphorylated isoform (phospho-Act1) (natural protein, mouse, UniProt Q8N7N6 1-555, looked up, phosphorylated (removed by shrimp alkaline phosphatase; sites not stated)) MNRSIPVEVDESEPFPSQLLKPIPEYSPEEELEPPAPNTRNMAPSSLSVLQCPPLKLANHQPVSQQVTCLRAKVLEEGEASFFRRHPELGKDISSCSSGASEPESELGALPPEHRFTLTEKRNRWLGSQLSAASPDTGHESDKSDPSLPNALADSFSGGQEMMPRPRPRPGPHRHRAAPDVPTIDTGYDSQPQDVLGIRQLERPLPLTSSCYLQDLPGPLRSRELPPQFELERYPMNAQLLPPHPSPQAPWNCQYYCPGGPYHHQVPHGHGYPPAAAYQQVLQPALPGQVLPGARARGPRPVQKVILNDSSPQDQEERPAQRDFSFPRLPRDQLYRPPSNGVEAPEESLDLPAELRPHGPQAPSLAAVPRPPSNPLARGTLRTSNLPEELRKVFITYSMDTAMEVVKFVNFLLVNGFQTAIDIFEDRIRGIDIIKWMERYLRDKTVMIIVAISPKYKQDVEGAESQLDEDEHGLHTKYIHRMMQIEFISQGSMNFRFIPVLFPNAKKEHVPTWLQNTHVYSWPKNKKNILLRLLREEEYVAPPRGPLPTLQVVPL", "values": [
      {"measurement": "fold induction of co-precipitated phospho-Act1 over the 0 time point", "result": "~6", "unit": "fold"}
    ]}
  ]
}
